Source: patent US11028172 (LEPU BIOPHARMA, dated 2021)
Substitutions are numbered along the chain they refer to. Where two headings read alike, the source gives them in different places.

T1: human TIGIT expressed on cells (human, UniProt Q495A1 22-244)
T1 construct: whole, on cells; also called human TIGIT overexpressed mammalian cells; human TIGIT cells
T1 sequence (looked up): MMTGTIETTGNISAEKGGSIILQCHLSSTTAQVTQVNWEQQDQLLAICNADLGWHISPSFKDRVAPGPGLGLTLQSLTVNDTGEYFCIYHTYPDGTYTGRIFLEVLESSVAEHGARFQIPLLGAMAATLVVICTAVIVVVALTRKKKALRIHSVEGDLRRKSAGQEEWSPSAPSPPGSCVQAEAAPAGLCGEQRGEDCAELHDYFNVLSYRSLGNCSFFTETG

T2: human TIGIT-His protein (human, UniProt Q495A1 22-141)
T2 construct: Recombinant protein; also called human TIGIT-his tag; hTIGIT-His
T2 sequence (looked up): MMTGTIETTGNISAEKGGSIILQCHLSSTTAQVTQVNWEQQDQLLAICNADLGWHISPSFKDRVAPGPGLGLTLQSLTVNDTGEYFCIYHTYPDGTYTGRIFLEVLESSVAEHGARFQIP

T3: biotin-labeled human TIGIT protein (human, UniProt Q495A1 22-141, biotin-labeled (sites not given))
T3 construct: also called recombinant human TIGIT
T3 sequence (looked up): T2 sequence (looked up)

B1: Tiragolumab (RG6058, Roche) (antibody, V domains shown)
VH: EVQLQQSGPGLVKPSQTLSLTCAISGDSVSSNSAAWNWIRQSPSRGLEWLGKTYYRFKWYSDYAVSVKGRITINPDTSKNQFSLQLNSVTPEDTAVFYCTRESTTYDLLAGPFDYWGQGTLVTVSS
VL: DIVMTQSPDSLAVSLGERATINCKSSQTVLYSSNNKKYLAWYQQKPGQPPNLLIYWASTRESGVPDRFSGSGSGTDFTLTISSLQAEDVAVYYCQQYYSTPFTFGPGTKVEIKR
B2: 76D12B10-Hu08 (antibody, V domains shown)
VH: EVQLQESGPGLVKPSETLSLTCAVSGYSISSGYDWHWIRQPPGKGLEWMGFIRDSGSTVYNPSLKGRITISHDTSKNQFSLKLSSVTAADTAVYYCARGLFWYFDVWGQGTTVTVSS
VL: DIQMTQSPSSLSASVGDRVTITCRTSENIFSYLAWYQQKPGKVPKLLIHNTKTLAEGVPSRFSGSGSGTDFTLTISSLQPEDVATYYCQHHYGNPLTFGQGTKLEIK
notes: Humanized, VH.V3 + VK.V1
B3: 76D12B10-Hu02 (antibody, V domains shown)
VH: B2 VH with M49I
VL: B2 VL with H49Y
notes: Humanized, VH.V2 + VK.V0
B4: 76D12B10-Hu03 (antibody, V domains shown)
VH: B2 VH
VL: B2 VL with H49Y
notes: Humanized, VH.V3 + VK.V0
B5: 76D12B10-Hu09 (antibody, V domains shown)
VH: B2 VH with V24A, S30T
VL: B2 VL
notes: Humanized, VH.V4 + VK.V1
B6: 76D12B10-Hu15 (antibody, V domains shown)
VH: B2 VH with V24A, S30T, G45K, Y95F
VL: B2 VL with I48V
notes: Humanized, VH.V5 + VK.V2
B7: 76D12B10-Hu10 (antibody, V domains shown)
VH: B2 VH with V24A, S30T, G45K, Y95F
VL: B2 VL
notes: Humanized, VH.V5 + VK.V1
B8: 76D12B10-Hu14 (antibody, V domains shown)
VH: B2 VH with V24A, S30T
VL: B2 VL with I48V
notes: Humanized, VH.V4 + VK.V2

How the values were obtained:
[1] = molecular target: T1, human TIGIT expressed on cells; assay: flow cytometry on human TIGIT overexpressing cells, Alexa Fluor 647 anti-human IgG; unit from the x axis
Method: (§1) To evaluate the antigen binding property, the humanized antibodies were analyzed for their binding to human TIGIT overexpressed mammalian cells by FACS. Briefly, human TIGIT cells were firstly incubated with 3-fold serious diluted humanized antibodies starting at 5 µg/ml at 4° C. for 40 mins.

[2] = molecular target: T1, human TIGIT expressed on cells; assay: cell-based or functional assay
[3] = molecular target: T1, human TIGIT expressed on cells; assay: flow cytometry (FACS) on human TIGIT overexpressing mammalian cells
Method: as §1

[4] = molecular target: T2, human TIGIT-His protein; assay: SPR (Biacore) affinity ranking, human TIGIT-His
[5] = molecular target: T2, human TIGIT-His protein; assay: ELISA, plate coated with human TIGIT-His, anti-human IgG-HRP, OD 450nm; unit taken from the axis Log[Conc.]/ng/ml
Method: (§2) To evaluate the antigen binding activity, the humanized antibodies were subjected to ELISA test. Briefly, microtiter plates were coated with human TIGIT-his protein at 0.5 µg/ml in PBS, 100 µl/well at 4° C. overnight, then blocked with 150 µl/well of 1% BSA. Three-fold dilutions of humanized antibodies starting from 3 µg/ml were added to each well and incubated for 1 hour at 37° C. The plates were washed with PBS/Tween and then incubated with Goat-anti-human IgG antibody conjugated with Horse Radish Peroxidase (HRP) for 30 mins at 37° C. After washing, the plates were developed with TMB substrate and analyzed by spectrophotometer at OD 450 nm.

[6] = molecular target: T3, biotin-labeled human TIGIT protein; assay: ELISA blocking assay: CD155-hFc coated, biotin-labeled human TIGIT, antibody titrated
Method: To evaluate the blocking effects of Hu02 and Hu06 on recombinant human TIGIT to bind to its receptor CD155, an ELISA based receptor blocking assay was used.
Briefly, microtiter plates were coated with human CD155-hFc protein at 5 µg/ml in PBS, 100 µl/well at 4° C. overnight, then blocked with 150 µl/well of 1% BSA. 50 µl biotin-labeled human TIGIT protein and 3-fold dilutions of Hu02 and Hu06 antibodies starting from 10 µg/ml at 50 µl were added to each well and incubated for 1 hour at 37° C. The plates were washed with PBS/Tween and then incubated with Streptavidin-HRP for 10 mins at 37° C. After washing, the plates were developed with TMB substrate and analyzed by spectrophotometer at OD 450 nm.

[7] = molecular target: T2, human TIGIT-His protein; assay: SPR (Biacore T200) full kinetics, antibody captured on Protein A chip, hTIGIT-His as analyte
Method: The binding of the humanized antibodies to recombinant TIGIT protein (human TIGIT-his tag) was tested by BIACORE™ using a capture method. Hu02 and Hu06 mAbs were captured using Protein A chip. A serial dilution of human TIGIT-his tag protein was injected over captured antibody for 2 mins at a flow rate of 30 µl/min. The antigen was allowed to dissociate for 1800 s. All the experiment were carried out on a Biacore T200.

[8] = molecular target: T2, human TIGIT-His protein; assay: ELISA, plate coated with human TIGIT-His, anti-human IgG-HRP, OD 450nm; unit taken from the axis Log[Conc.]/ng/ml; remark: listed apart in the source
Method: as §2, with “Hu02 and Hu06” for “the humanized antibodies”, “0.5 hour” for “30 mins”

[9] = molecular target: T1, human TIGIT expressed on cells; assay: cell-based or functional assay; remark: listed apart in the source

Row | Binder | Kd [4] | koff [4] | kon [4] | EC50 [5] | other results
1 | B1 |  |  |  |  | LogEC50 [1]: 1.57 Log[Conc.]/ng/ml; EC50, NFAT luciferase reporter (RLU), TIGIT-CD226-NFAT effector cells with Raji-CD155 target cells [2]: 2.95 nM; LogEC50, NFAT luciferase reporter (RLU), TIGIT-CD226-NFAT effector cells with Raji-CD155 target cells [2]: 0.47 Log[Conc.]/nM; EC50 [3]: 36.8 ng/mL
2 | B2 | 0.0192 nM | 9.73e-05 s⁻¹ | 5.06e+06 M⁻¹ s⁻¹ | 9.54 ng/mL | 
3 | B3 | 0.0196 nM | 9.74e-05 s⁻¹ | 4.98e+06 M⁻¹ s⁻¹ | 10.2 ng/mL | IC50 [6]: 1130 ng/mL; Kd [7]: 0.0462 nM; koff [7]: 9.27e-05 s⁻¹; kon [7]: 2e+06 M⁻¹ s⁻¹; EC50 [8]: 8.23 ng/mL; NFAT luciferase production, EC50 [9]: 1.76 nM
4 | B4 | 0.0143 nM | 0.00015 s⁻¹ | 1.05e+07 M⁻¹ s⁻¹ | 10.6 ng/mL | 
5 | B5 | 0.0139 nM | 0.000125 s⁻¹ | 9.01e+06 M⁻¹ s⁻¹ | 4.95 ng/mL | 
6 | B6 | 0.0135 nM | 0.000105 s⁻¹ | 7.76e+06 M⁻¹ s⁻¹ | 9.68 ng/mL | 
7 | B7 | 0.0266 nM | 9.79e-05 s⁻¹ | 3.68e+06 M⁻¹ s⁻¹ | 4.01 ng/mL | 
8 | B8 | 0.0196 nM | 9.97e-05 s⁻¹ | 5.09e+06 M⁻¹ s⁻¹ | 10.8 ng/mL | 
